The source of these data is US20020137095A1 (RIKEN, published 2002).

For data set [1], the target named is T1, full-length mouse Reelin protein (mouse, UniProt Q60841 27-3461).
T1 construct: whole, on cells; Secreted protein; Forms homophilic complexes of unstated size; also called native Reelin; full-length Reelin
The data set is described as follows: cell adhesion assay after allowing for about 20% background, CR-50 at 50 µg/ml.

Data set [2] deals with T1, full-length mouse Reelin protein. The data set is described as follows: cell adhesion assay after allowing for about 20% background, CR-50 at 20 µg/ml.
The target is the same in data set [3]. As to the kind of experiment: cell adhesion assay after allowing for about 20% background, CR-50 at 200 µg/ml.
Data set [4] has the same target. The data set is described as follows: cell adhesion assay: Reelin-presenting cells on CR-50 epitope-coated dishes (200 or 50 µg/ml). The procedure:
(A) Reelin-presenting cells on CR-50 epitope-coated dish (200 μg/ml). (B) Reelin-presenting cells on control-coated dish. (C) Histograms showing cell numbers in cell adhesion assay on CR-50 epitope-coated dishes (200 or 50 μg/ml) that are normalized to the control.
The former supernatant contained full-length Reelin molecules and the latter one contained no Reelin. After nitrocellulose/methanol treatment, Petri dishes were coated overnight with each supernatant. Petri dishes coated with the CR-50 epitope were prepared by overnight incubation with recombinant CR-50 epitope proteins produced from E. coli cells. […] After incubation for 2 hours, each plate was washed with panning buffer (PBS containing 10% v/v FCS) 7 to 10 times until no floating cells remained. To examine the effect of CR-50 antibody on cell adhesion, the antibody was added to the culture medium from the beginning of incubation. Then, the cells remaining on the dishes were observed by a microscope connected to a computer-controlled camera. This experiment was repeated five times, and for each dish, five microscopic fields were scored.

Data set [5] concerns the molecule itself. As to the kind of experiment: analytical gel filtration (Superdex-200), 0.15 M NaCl, pH 7.4, 40 µM sample. The procedure:
A FPLC gel filtration chromatography system (Pharmacia) was used for chromatography. This system was controlled by a computer FPLC director program (Pharmacia). The sample was loaded onto a Superdex-200 gel filtration column (separation range: 10 kDa to 600 kDa, Pharmacia), which had been pre-equilibrated with a buffer containing 20 mM sodium phosphate, pH 7.4, 0.15 M NaCl, and 5 mM DTT, and then eluted at flow rate of 0.5 ml/min. The sample concentration was adjusted to 40 μM.

T1 sequence (Q60841 27-3461): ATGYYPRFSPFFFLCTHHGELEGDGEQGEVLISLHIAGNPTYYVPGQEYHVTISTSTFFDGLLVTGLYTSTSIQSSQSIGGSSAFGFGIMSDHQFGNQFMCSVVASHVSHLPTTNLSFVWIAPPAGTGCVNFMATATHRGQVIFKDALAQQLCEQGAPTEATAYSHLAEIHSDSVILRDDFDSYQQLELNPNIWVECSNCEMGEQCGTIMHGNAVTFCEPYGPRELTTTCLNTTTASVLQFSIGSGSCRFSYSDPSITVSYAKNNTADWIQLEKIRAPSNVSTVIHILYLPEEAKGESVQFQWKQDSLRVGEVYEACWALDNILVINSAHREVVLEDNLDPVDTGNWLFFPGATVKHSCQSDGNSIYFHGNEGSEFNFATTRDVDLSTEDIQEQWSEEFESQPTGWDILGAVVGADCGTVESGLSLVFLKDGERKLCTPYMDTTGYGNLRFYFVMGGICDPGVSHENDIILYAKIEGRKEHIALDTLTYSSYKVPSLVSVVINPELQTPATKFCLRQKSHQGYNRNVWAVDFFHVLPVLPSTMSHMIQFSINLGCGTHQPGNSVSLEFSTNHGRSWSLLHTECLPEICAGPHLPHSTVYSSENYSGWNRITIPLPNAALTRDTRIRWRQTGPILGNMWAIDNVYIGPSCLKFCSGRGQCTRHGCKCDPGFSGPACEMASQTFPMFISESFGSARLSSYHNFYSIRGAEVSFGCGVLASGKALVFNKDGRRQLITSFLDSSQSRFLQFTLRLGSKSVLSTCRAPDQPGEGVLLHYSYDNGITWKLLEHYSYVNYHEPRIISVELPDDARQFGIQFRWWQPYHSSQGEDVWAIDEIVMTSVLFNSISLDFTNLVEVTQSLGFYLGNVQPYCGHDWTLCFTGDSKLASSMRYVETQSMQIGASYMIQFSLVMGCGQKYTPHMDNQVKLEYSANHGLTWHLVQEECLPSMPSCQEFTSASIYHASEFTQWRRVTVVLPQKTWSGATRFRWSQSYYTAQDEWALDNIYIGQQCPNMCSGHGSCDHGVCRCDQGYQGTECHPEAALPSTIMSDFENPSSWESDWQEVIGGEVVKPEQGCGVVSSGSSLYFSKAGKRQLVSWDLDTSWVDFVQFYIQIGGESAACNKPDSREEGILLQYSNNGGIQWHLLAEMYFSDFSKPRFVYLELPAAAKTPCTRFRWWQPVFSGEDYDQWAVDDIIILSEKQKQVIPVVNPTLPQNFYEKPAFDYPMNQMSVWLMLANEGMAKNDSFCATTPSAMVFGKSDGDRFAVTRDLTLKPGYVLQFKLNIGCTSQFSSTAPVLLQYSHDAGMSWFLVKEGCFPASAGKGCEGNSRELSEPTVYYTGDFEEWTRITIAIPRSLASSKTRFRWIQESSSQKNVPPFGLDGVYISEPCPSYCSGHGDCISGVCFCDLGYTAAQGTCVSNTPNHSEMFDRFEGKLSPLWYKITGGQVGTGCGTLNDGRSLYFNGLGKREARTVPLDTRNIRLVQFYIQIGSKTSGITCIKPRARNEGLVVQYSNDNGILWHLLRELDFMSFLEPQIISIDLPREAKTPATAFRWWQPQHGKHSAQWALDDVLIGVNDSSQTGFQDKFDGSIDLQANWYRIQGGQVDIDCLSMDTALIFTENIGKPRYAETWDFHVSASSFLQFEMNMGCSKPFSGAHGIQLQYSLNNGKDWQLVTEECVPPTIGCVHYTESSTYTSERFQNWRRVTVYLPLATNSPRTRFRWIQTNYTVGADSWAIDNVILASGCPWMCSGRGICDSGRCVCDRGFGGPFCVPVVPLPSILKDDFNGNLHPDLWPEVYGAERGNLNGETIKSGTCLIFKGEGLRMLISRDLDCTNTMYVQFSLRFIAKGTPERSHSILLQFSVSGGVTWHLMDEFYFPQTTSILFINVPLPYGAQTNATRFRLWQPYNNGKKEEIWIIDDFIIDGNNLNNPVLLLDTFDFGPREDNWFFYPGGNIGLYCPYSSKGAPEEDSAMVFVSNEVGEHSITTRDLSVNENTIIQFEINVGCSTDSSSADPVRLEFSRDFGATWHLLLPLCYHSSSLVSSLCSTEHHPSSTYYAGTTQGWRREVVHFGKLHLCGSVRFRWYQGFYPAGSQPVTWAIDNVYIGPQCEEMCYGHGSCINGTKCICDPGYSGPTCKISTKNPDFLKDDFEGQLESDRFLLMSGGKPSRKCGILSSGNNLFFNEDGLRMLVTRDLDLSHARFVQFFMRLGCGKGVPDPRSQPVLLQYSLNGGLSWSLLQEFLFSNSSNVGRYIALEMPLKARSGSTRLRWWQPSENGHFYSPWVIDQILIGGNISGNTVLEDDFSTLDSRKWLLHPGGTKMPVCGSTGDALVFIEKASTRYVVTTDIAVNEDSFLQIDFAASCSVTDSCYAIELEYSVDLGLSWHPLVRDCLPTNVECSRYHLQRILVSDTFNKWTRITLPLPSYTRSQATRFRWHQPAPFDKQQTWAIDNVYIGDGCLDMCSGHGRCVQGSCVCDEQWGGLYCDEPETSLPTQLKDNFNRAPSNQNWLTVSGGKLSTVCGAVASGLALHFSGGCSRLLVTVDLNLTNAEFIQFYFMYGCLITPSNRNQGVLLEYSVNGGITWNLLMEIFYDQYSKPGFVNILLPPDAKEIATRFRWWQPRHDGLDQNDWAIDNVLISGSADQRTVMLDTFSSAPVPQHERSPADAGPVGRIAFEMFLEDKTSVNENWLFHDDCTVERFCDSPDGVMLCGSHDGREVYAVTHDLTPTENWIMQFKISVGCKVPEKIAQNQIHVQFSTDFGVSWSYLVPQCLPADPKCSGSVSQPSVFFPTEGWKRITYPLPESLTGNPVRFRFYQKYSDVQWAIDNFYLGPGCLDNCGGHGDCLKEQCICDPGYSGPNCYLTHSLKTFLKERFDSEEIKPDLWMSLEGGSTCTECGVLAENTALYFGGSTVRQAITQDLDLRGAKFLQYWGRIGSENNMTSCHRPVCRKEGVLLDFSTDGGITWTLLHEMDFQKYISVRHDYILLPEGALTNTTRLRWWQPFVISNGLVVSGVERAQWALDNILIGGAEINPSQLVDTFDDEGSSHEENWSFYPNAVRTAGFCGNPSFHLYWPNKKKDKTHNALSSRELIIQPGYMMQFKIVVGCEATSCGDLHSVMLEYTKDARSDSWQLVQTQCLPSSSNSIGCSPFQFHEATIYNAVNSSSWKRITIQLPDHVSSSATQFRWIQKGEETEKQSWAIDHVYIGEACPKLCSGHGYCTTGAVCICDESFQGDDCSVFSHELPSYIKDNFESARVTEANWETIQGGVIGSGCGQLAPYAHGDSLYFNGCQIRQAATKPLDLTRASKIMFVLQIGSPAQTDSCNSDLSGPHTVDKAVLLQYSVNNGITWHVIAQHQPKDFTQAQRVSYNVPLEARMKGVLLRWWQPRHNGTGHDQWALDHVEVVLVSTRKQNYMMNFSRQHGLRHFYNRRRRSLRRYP

For CR-50 antibody, the specific binding left, fraction of the control (fraction of specific binding) in data set [1] is 0.25; in data set [2], 0.33; in data set [3], 0.1.

B1: recombinant CR-50 epitope fragment of Reelin (residues 230-346) with C-terminal His-tag, from E. coli (other, not shown: small tags and cut ends)
chain: EQCGTIMHGNAVTFCEPYGPRELTTTCLNTTTASVLQFSIGSGSCRFSYSDPSITVSYAKNNTADWIQLEKIRAPSNVSTVIHILYLPEEAKGESVQFQWKQDSLRVGEVYEACWAL
notes: Under physiological conditions it forms a homopolymer of more than 600 kDa (more than 40 molecules of about 15 kDa)
With B1, the binding result in data set [4] and in data set [5] was “binds” in each case.
